Values belong to the binder of their own block, whether it stands above or below them.
Experiments:
Assay in all cases: holdup assay
Design in all cases: key: below the threshold = too weak to quantify, mostly under pKd 3.1 to 4
GRIP2_5, Q9C0E4 = target: GRIP2_5, Q9C0E4
PDLIM1, O00151 = target: PDLIM1, O00151
ARHGAP21, Q5T5U3 = target: T1, ARHGAP21, Q5T5U3
T1 sequence (Q5T5U3 45-169, limits assumed, looked up): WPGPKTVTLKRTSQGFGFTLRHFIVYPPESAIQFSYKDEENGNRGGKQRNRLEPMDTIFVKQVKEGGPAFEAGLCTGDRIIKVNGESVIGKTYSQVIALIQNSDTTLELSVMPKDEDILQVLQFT

CARD11, Q9BXL7 = target: T2, CARD11, Q9BXL7
T2 sequence (Q9BXL7 662-765, limits assumed, looked up): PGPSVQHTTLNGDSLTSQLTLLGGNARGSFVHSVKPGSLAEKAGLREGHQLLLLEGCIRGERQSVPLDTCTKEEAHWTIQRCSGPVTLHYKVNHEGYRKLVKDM

MAGI1_2, Q96QZ7 = target: MAGI1_2, Q96QZ7
IL16_4, Q14005 = target: IL16_4, Q14005
MPP6, Q9NZW5 = target: T3, MPP6, Q9NZW5
T3 sequence (Q9NZW5 125-219, limits assumed, looked up): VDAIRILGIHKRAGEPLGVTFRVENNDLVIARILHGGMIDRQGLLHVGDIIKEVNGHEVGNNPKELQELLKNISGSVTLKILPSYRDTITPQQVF

RADIL, Q96JH8 = target: T4, RADIL, Q96JH8
T4 sequence (Q96JH8 971-1071, limits assumed, looked up): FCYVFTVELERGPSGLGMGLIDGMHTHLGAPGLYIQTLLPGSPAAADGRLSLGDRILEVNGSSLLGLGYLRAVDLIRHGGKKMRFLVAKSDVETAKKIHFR

TJP1_3, Q07157 = target: TJP1_3, Q07157
PTPN13_1, Q12923 = target: T5, PTPN13_1, Q12923
T5 sequence (Q12923 1088-1188, limits assumed, looked up): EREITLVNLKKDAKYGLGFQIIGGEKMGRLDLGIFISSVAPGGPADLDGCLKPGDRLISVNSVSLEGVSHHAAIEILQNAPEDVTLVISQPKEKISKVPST

MPDZ_5, O75970 = target: T6, MPDZ_5, O75970
T6 sequence (O75970 695-796, limits assumed, looked up): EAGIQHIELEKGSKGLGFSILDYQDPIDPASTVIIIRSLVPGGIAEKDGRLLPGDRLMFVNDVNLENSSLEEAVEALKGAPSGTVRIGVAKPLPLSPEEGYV

RAPGEF6, Q8TEU7 = target: T7, RAPGEF6, Q8TEU7
T7 sequence (Q8TEU7 525-625, limits assumed, looked up): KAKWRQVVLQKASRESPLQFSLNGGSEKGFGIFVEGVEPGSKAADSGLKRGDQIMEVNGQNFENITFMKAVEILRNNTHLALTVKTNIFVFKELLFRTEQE

HTRA2, O43464 = target: HTRA2, O43464
NHERF4_4, Q86UT5 = target: NHERF4_4, Q86UT5
GIPC2, Q8TF65 = target: GIPC2, Q8TF65
MPDZ_10, O75970 = target: T8, MPDZ_10, O75970
T8 sequence (O75970 1624-1722, limits assumed, looked up): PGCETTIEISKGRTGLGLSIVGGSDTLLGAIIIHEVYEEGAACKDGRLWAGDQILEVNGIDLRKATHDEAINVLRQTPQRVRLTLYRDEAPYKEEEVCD

DVL3, Q92997 = target: T9, DVL3, Q92997
T9 sequence (Q92997 244-331, limits assumed, looked up): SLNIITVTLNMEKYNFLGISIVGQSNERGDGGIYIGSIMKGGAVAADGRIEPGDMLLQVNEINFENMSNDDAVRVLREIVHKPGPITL

Inadl_3, Q8NI35 = target: Inadl_3, Q8NI35
ARHGEF12, Q9NZN5-2 = target: ARHGEF12, Q9NZN5-2
ARHGEF11, O15085 = target: T10, ARHGEF11, O15085
T10 sequence (O15085 42-136, limits assumed, looked up): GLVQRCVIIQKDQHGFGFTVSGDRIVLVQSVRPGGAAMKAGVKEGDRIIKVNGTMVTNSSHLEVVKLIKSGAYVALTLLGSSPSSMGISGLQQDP

LIN7C, Q9NUP9 = target: T11, LIN7C, Q9NUP9
T11 sequence (Q9NUP9 88-185, limits assumed, looked up): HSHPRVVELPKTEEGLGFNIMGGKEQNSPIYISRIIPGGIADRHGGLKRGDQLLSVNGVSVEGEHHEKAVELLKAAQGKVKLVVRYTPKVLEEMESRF

PTPN3, P26045 = target: PTPN3, P26045
SIPA1L2, Q9P2F8 = target: T12, SIPA1L2, Q9P2F8
T12 sequence (Q9P2F8 945-1036, limits assumed, looked up): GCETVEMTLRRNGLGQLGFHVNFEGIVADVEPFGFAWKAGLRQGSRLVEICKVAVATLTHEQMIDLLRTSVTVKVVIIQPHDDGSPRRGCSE

Inadl_2, Q8NI35 = target: Inadl_2, Q8NI35
Inadl_6, Q8NI35 = target: Inadl_6, Q8NI35
[1] = plain residues with an end cap or a label only (N-terminal biotin on a linker: ttds)
[2] = plain residues with an end cap or a label only (N-terminal biotin on a linker: ado-ado)

Chain of ARHGEF12, Q9NZN5-2 (Q9NZN5 other isoform, or with tags, fused parts or gaps): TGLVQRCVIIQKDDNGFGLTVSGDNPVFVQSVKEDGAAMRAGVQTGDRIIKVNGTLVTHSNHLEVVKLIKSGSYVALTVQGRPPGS
Chain of MAGI1_2, Q96QZ7 (Q96QZ7 456-580): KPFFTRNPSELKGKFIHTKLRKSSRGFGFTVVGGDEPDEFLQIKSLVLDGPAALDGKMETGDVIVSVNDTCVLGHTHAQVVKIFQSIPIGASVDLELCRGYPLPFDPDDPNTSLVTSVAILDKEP
Chain of GRIP2_5, Q9C0E4 (Q9C0E4 544-642): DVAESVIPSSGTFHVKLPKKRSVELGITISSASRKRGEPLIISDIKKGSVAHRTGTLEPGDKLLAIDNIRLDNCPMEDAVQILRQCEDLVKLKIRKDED
Chain of HTRA2, O43464 (O43464 355-458): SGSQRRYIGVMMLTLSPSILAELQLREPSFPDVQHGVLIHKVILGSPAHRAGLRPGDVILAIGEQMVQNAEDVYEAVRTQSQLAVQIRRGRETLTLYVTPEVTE
Chain of NHERF4_4, Q86UT5 (Q86UT5 464-550): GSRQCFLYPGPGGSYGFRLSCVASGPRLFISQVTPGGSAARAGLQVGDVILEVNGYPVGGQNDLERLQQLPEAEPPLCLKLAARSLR
Chain of TJP1_3, Q07157 (Q07157 416-512): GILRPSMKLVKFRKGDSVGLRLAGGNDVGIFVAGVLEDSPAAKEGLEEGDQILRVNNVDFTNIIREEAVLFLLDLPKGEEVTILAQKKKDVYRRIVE
Chain of PDLIM1, O00151 (O00151 1-87): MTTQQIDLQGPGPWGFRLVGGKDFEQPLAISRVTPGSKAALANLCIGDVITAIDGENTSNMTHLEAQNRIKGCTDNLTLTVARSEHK
Chain of Inadl_6, Q8NI35 (Q8NI35 1058-1167): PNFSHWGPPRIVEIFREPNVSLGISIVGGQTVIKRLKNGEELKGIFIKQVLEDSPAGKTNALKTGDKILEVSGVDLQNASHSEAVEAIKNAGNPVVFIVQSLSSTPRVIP
Chain of IL16_4, Q14005 (Q14005 1229-1329): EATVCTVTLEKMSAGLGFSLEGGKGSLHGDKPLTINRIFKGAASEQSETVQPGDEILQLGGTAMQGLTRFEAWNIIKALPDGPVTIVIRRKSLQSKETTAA
Chain of Inadl_2, Q8NI35 (Q8NI35 238-335): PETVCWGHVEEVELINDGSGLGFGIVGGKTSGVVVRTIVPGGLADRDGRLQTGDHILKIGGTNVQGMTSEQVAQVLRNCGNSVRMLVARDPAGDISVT
Chain of PTPN3, P26045 (P26045 505-587): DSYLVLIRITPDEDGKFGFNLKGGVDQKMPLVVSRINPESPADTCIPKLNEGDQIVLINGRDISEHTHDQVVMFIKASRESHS
Chain of Inadl_3, Q8NI35 (Q8NI35 359-469): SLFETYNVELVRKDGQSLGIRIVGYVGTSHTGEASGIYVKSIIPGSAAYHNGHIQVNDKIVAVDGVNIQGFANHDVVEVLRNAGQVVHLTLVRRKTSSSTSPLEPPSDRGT
Chain of GIPC2, Q8TF65 (Q8TF65 112-203): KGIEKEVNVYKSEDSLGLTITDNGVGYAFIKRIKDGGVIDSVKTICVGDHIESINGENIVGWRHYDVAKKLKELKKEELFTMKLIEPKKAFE

- pKd (GRIP2_5, Q9C0E4; [1]): below the threshold
- pKd (PDLIM1, O00151; [1]): below the threshold
- pKd (ARHGAP21, Q5T5U3; [1]): below the threshold
- pKd (CARD11, Q9BXL7; [1]): below the threshold
- pKd (MAGI1_2, Q96QZ7; [1]): below the threshold
- pKd (IL16_4, Q14005; [1]): 3.6
- pKd (MPP6, Q9NZW5; [1]): 3.54
- pKd (RADIL, Q96JH8; [1]): 3.63
- pKd (TJP1_3, Q07157; [1]): below the threshold
- pKd (PTPN13_1, Q12923; [1]): 3.57
- pKd (MPDZ_5, O75970; [1]): 3.53
- pKd (RAPGEF6, Q8TEU7; [1]): below the threshold
- pKd (HTRA2, O43464; [1]): below the threshold
- pKd (NHERF4_4, Q86UT5; [1]): below the threshold
- pKd (GIPC2, Q8TF65; [1]): below the threshold
- pKd (MPDZ_10, O75970; [1]): 3.51
- pKd (DVL3, Q92997; [1]): below the threshold
- pKd (Inadl_3, Q8NI35; [1]): 3.75
- pKd (ARHGEF12, Q9NZN5-2; [1]): below the threshold
- pKd (ARHGEF11, O15085; [1]): below the threshold
- pKd (LIN7C, Q9NUP9; [1]): 3.64
- pKd (PTPN3, P26045; [1]): 3.8
- pKd (SIPA1L2, Q9P2F8; [1]): below the threshold
- pKd (Inadl_2, Q8NI35; [1]): below the threshold
- pKd (Inadl_6, Q8NI35; [1]): below the threshold
B1: MAS1, P04201 (peptide)
chain: CNTVTVETVV

- pKd (GRIP2_5, Q9C0E4; [2]): below the threshold
- pKd (PDLIM1, O00151; [2]): 3.52
- pKd (ARHGAP21, Q5T5U3; [2]): 4.17
- pKd (CARD11, Q9BXL7; [2]): below the threshold
- pKd (MAGI1_2, Q96QZ7; [2]): below the threshold
- pKd (IL16_4, Q14005; [2]): below the threshold
- pKd (MPP6, Q9NZW5; [2]): below the threshold
- pKd (RADIL, Q96JH8; [2]): 3.61
- pKd (TJP1_3, Q07157; [2]): 3.48
- pKd (PTPN13_1, Q12923; [2]): below the threshold
- pKd (MPDZ_5, O75970; [2]): below the threshold
- pKd (RAPGEF6, Q8TEU7; [2]): below the threshold
- pKd (HTRA2, O43464; [2]): below the threshold
- pKd (NHERF4_4, Q86UT5; [2]): 4.01
- pKd (GIPC2, Q8TF65; [2]): below the threshold
- pKd (MPDZ_10, O75970; [2]): below the threshold
- pKd (DVL3, Q92997; [2]): below the threshold
- pKd (Inadl_3, Q8NI35; [2]): below the threshold
- pKd (ARHGEF12, Q9NZN5-2; [2]): 3.51
- pKd (ARHGEF11, O15085; [2]): 3.79
- pKd (LIN7C, Q9NUP9; [2]): below the threshold
- pKd (PTPN3, P26045; [2]): below the threshold
- pKd (SIPA1L2, Q9P2F8; [2]): below the threshold
- pKd (Inadl_2, Q8NI35; [2]): below the threshold
- pKd (Inadl_6, Q8NI35; [2]): below the threshold
B2: RCN1, Q15293 (peptide)
chain: EDLTKNHDEL

- pKd (GRIP2_5, Q9C0E4; [1]): below the threshold
- pKd (PDLIM1, O00151; [1]): below the threshold
- pKd (ARHGAP21, Q5T5U3; [1]): below the threshold
- pKd (CARD11, Q9BXL7; [1]): below the threshold
- pKd (MAGI1_2, Q96QZ7; [1]): below the threshold
- pKd (IL16_4, Q14005; [1]): below the threshold
- pKd (MPP6, Q9NZW5; [1]): below the threshold
- pKd (RADIL, Q96JH8; [1]): below the threshold
- pKd (TJP1_3, Q07157; [1]): below the threshold
- pKd (PTPN13_1, Q12923; [1]): below the threshold
- pKd (MPDZ_5, O75970; [1]): below the threshold
- pKd (RAPGEF6, Q8TEU7; [1]): below the threshold
- pKd (HTRA2, O43464; [1]): below the threshold
- pKd (NHERF4_4, Q86UT5; [1]): below the threshold
- pKd (GIPC2, Q8TF65; [1]): below the threshold
- pKd (MPDZ_10, O75970; [1]): below the threshold
- pKd (DVL3, Q92997; [1]): below the threshold
- pKd (Inadl_3, Q8NI35; [1]): below the threshold
- pKd (ARHGEF12, Q9NZN5-2; [1]): 4.33
- pKd (ARHGEF11, O15085; [1]): below the threshold
- pKd (LIN7C, Q9NUP9; [1]): 3.68
- pKd (PTPN3, P26045; [1]): 4.92
- pKd (SIPA1L2, Q9P2F8; [1]): below the threshold
- pKd (Inadl_2, Q8NI35; [1]): below the threshold
- pKd (Inadl_6, Q8NI35; [1]): 4.13
B3: MAP4, P27816 (peptide)
chain: LDSQIQETSI

Reference: publication PMC9482650, “Quantitative fragmentomics allow affinity mapping of interactomes” (Nature Communications, 2022)
